This data set in a line: yeast display, Sf9 membrane polyspecificity reagent, FACS + sequencing; frameworks hold sequencing errors. An outline of the steps: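 Sorting gates, low and high (top ~1%), were placed on anti-HA fluorescence to track expression and on streptavidin fluorescence to track reagent binding. A clone's polyreactivity label is taken from the gate it came out of. The reagent was 10% biotinylated, detergent-solubilized Sf9 membrane, applied for 1 hour at 4 °C to galactose-induced yeast display cells.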
For the sequence “QVQLVESGGGLVQAAGSLRLSCAASGRTSVRYAMGWNRQAHGKERELVAAISWSGGSTYYADSVKGRFTISRDNAKNTVYLQMNSLKPEDTAVYYCNAQHALGYYYWGQGTQVTVSS”, the “polyreactivity (PSR sort gate)” value is listed as “low polyreactivity”.

Take “QVQLVESGGGLVQAAGSLRLSCAASGTTFNRFFMGWYREAPGTERELVAANGGRTYYADSVKGRFTISRDNAKKSVYFQRNSLKPEDTAVYYCNARSYKHPYYRFDYWGQGTEVTVSS”: the “polyreactivity (PSR sort gate)” value was “high polyreactivity”.

For the sequence “QVQLVESGGGLVQAAGSLRVSCAASGSIFYGYAMGGYRKAPGKERELVAAITTVGSTYADSVKGRFTISRDNAKNTVYLQMNSLKPEDTAVYYCNARDYERTRRYLIVYSRYGYWGHGTQVTVSS”, the “polyreactivity (PSR sort gate)” value is listed as “low polyreactivity”.

Take “QVQLVESGGGLVQAGASLRLSCAASGFTFGINAMGWYRQAPGKERELVATISTRGGTTHYADSVKGRFTISRDNAKNTVYLQMNRLKPEDTAVYYCAVERGTFRSGFAYEYYYWGQGTQVTVSS”: the “polyreactivity (PSR sort gate)” value was “low polyreactivity”.

As for “QVQLVESGGGLVQAGASLRLSCAASGRIFARYAMGWYRQAPGKERELVASITRSGGSTYYADSVKGRYTISRDNAKNTVYLQMNSLKPEDTAVYYCAARYGRVRDVIPYDYWGQGTQVTVSS”, the “polyreactivity (PSR sort gate)” value is recorded as “high polyreactivity”.

Regarding “QVQLVESGGGLVQAGASLRLSCAASGRIFPTYAMGWYRQAPGKEMEFVAAISRSGGRTYYADSVKGRFTISRDHAKNTVYLQMNSLKPEDTAVYYCNAEGDPYVDFPSRSTGYDYWGQGTQVTVSS”, the “polyreactivity (PSR sort gate)” value is reported as “high polyreactivity”.

For “QVQLVESGGGLVQAGASLRLSCAASGRTFETNAMGWYSQAPGKEREFVASINWSGGSTYYSDSVKGRFTISRDNAKNTVYLQMNSLKPEDTAVYYCAADHSYWDWWSYYYWGQGTQVTVSS”, the “polyreactivity (PSR sort gate)” value was “low polyreactivity”.

“QVQLVESGGGLVQAGASLRLSCAASGRTFGGYAMGWYRQAAGKERELVAAISYSGGSTYYADSVKGRFTISRDYAKNTVYLQMNSLKPEDTAVYYCAADGFDAYYWGQGTQVTVSS”: the “polyreactivity (PSR sort gate)” value was “low polyreactivity”.

For the sequence “QVQLVESGGGLVQAGASLRLSCAASGRTYRWYTMGWYRPAPGKERELVAAITSRGGSTYADSVKGRFTISRDNAKNTVYLQMNSLKPEDTAVYYCNAARTYQYDYWGQGTQVTVSS”, the “polyreactivity (PSR sort gate)” value is given as “high polyreactivity”.

Consider “QVQLVESGGGLVQAGASLRLSCAASGSIFSGYTMGWYRQAPGKERELVAGISYRGGSTYYADSVKGRFTISRDNAKNTVYLQMNSLKPEDTAVYYCAALYYRRGSLNYEYWGQGTQVTVSS”, for which the “polyreactivity (PSR sort gate)” value is “high polyreactivity”.

For “QVQLVESGGGLVQAGASLRLSCAASGSIFSSYARGWYRPAPGKERELVAVITNGGSTYYADSVKGRFTISRDYAKNTVYLQMNSLKPEDTAVYYCNARWTKGRKYGYWGQGTQVTVSS”, the “polyreactivity (PSR sort gate)” value is “low polyreactivity”.

“QVQLVESGGGLVQAGASLRLSCAASGSIFTRNTMGWYRQAPGKERELVARISGGRTNYADSVKGRFTISRDNAKNTVYLQMYSLKPVDTAVYYCAARGLYTPTKRSGDPYYYWGQGSQVTVSS”: the “polyreactivity (PSR sort gate)” value was “high polyreactivity”.

In the case of “QVQLVESGGGLVQAGASLRLSCAASGSIFYYDMGWDRQAPGKERELVAAITWSGGSTYYADSVKGRFTISRDNAKNTVYLQMNSLKPEDTAVYYCAAIFGYGSTWWRWGKDDYWGQGTQVTVSS”, the “polyreactivity (PSR sort gate)” value is “high polyreactivity”.

As for “QVQLVESGGGLVQAGASLRLSCAASGSTFYYYAMGWYRQAPGKERELVAAITYRGGSTYYADSVKGRFTISRDNAKNTDFLQMNSLKPEDPAVYYCAADIVTGFISGPGYVYWGQGTQVTVSS”, the “polyreactivity (PSR sort gate)” value is on record as “high polyreactivity”.

As for “QVQLVESGGGLVQAGASLRLSCDASGLTFGYYAMGWYRQAPGKERELVAAINRSGNTNYADSVKGRFTISRDNAKNTVYLQMNSLKPEDTAVYYCAKRIWSILSPYKSSYGYDYWGQGTQVTVSS”, the “polyreactivity (PSR sort gate)” value was “low polyreactivity”.

With “QVQLVESGGGLVQAGCRLRLSCAASGLIFGYYHMGWYRQAPGKERELVAAITTGDSTYYADSVKGRFTISRDNAKNTVYLQMNSLKPEDTAVYYCAAYPVWYYEYDYWGQGTQVTVSS”, the “polyreactivity (PSR sort gate)” value is reported as “low polyreactivity”.

Take “QVQLVESGGGLVQAGCSLLLSCDATGNIFRYYFMGWYRQAPGKEREFVAAITTSCGSTYYADSVKGRFTISRDNAKNTVYLQMNSLKQEDTAVYYCAKDYWVPGWAEYDYWGQGTQVTVSS”: the “polyreactivity (PSR sort gate)” value is recorded as “low polyreactivity”.

As to “QVQLVESGGGLVQAGCSLRISCAASGLIFQYYAMGWYRQAPGKERELVAAISGFGVRTYYADSVKGRFTISRDNAKNTVYLQMNSLKPEDTAVYYCNTLRQDIIRGDYWGQGTQVTVSS”, the “polyreactivity (PSR sort gate)” value is given as “high polyreactivity”.

“QVQLVESGGGLVQAGCSLRISSAASGRIFAVKAMGWYRQAPGKDRELVAAITNVGSTNYADSVKGRFTISRDNAKNTVYLQMNSLKPEDTAVYYCNADLAQEDWKMDYWGQGTQVTVSS”: the “polyreactivity (PSR sort gate)” value was “low polyreactivity”.

Consider “QVQLVESGGGLVQAGCSLRLICAASALTFYHKAMGWYRPAPVKERELVAPISSSGDSTYSADSVKGRFTISHDNGKNTVYLQMNSLKPEYTAVYYCAADLGYYNARWYEYWGQGTQVTVSS”, for which the “polyreactivity (PSR sort gate)” value is recorded as “high polyreactivity”.

Turning to “QVQLVESGGGLVQAGCSLRLRCAASGYTFYDYAMGWYRPAPGKERELVAASSSSGGSTYYADSVKGRFTISRDNAKNTGYLQMNSVKPEDTALYYCAVRARRWRYNYWGQGTQVTVSS”, the “polyreactivity (PSR sort gate)” value is reported as “high polyreactivity”.

Take “QVQLVESGGGLVQAGCSLRLSCAASGFIFTSYAMGWYRQAPGKERDLVAAITRSGGRTYYADSVKGRFTISLDNAKITVYLQMNSLKPEDTAVYYCAAVTFYQSPARGYWGQGTQVTVSS”: the “polyreactivity (PSR sort gate)” value was “high polyreactivity”.

With “QVQLVESGGGLVQAGCSLRLSCAASGFTFAGNAMGWYRQAPGKERELVAAISRRGGSTYYADSVKGRFTISRDNAKNTVYLKMNSLKPEDNAVYYCAAVYRYDYDYWGQGNQVTVSS”, the “polyreactivity (PSR sort gate)” value is given as “high polyreactivity”.

As for “QVQLVESGGGLVQAGCSLRLSCAASGFTYARYTMGWYRQAPGKERELVAAISSRGSSTYYADSVKGRFTISRDNAKNSVYLQMNCLKPEDTAVYYCAAPPRYGYDYWGQGTQVTVSS”, the “polyreactivity (PSR sort gate)” value is given as “high polyreactivity”.

Regarding “QVQLVESGGGLVQAGCSLRLSCAASGIIFGYYAMGWYRQAPVKERELVAAISSRGSRTYYSDSLKGRFTISRDNAKNTVYLQMNSLIPEDTAVYYCAVRGKFDYWGQGTQVTVSS”, the “polyreactivity (PSR sort gate)” value is recorded as “high polyreactivity”.

Take “QVQLVESGGGLVQAGCSLRLSCAASGITVYDYDMGWYRQAPGKERELVAAITWNGGSTYYADSVKGRFTISRDNAKNTVYLQMNSLKPEDTAVYYCAAESYYIYDYWGQGTQVTVSS”: the “polyreactivity (PSR sort gate)” value was “high polyreactivity”.

Regarding “QVQLVESGGGLVQAGCSLRLSCAASGLIFLPYAMGWYIQAPGKERELVAAINFSTGSTHYADSVKGRFTISRDNAKNTVFLQMNSLKPEDTAVYYCAVYTSQIYGYWGQGTQVNVSS”, the “polyreactivity (PSR sort gate)” value is recorded as “high polyreactivity”.

With “QVQLVESGGGLVQAGCSLRLSCAASGLTFAKYAMGWYRHAPGKEWELVAAISRSGGSTYYADSVKGRFTISRDNAKNTVYLQMNSLKPEDTAVYYCAKSSGTLWITKYDYWGQGTQVTVSS”, the “polyreactivity (PSR sort gate)” value is on record as “low polyreactivity”.

With “QVQLVESGGGLVQAGCSLRLSCAASGLTFHWYTMGWYRQAPGKERELVATINSGGSTDYADSVKGRFTISRDNAKNTVYLQMNSLKPEDTAVYYCNAEYGYSGVGDDYWGQGTQVTVSS”, the “polyreactivity (PSR sort gate)” value was “low polyreactivity”.

In the case of “QVQLVESGGGLVQAGCSLRLSCAASGRIFRLNAMGWYRQAPGKERELVAAISSSGGSTYYADSVKGRFTISRDNAKNTVYLQMNSLKPEDTAVSYCAKYPVGGYDYWGQGPQVTVSS”, the “polyreactivity (PSR sort gate)” value was “low polyreactivity”.

Consider “QVQLVESGGGLVQAGCSLRLSCAASGRIFYTYAMGWYRQAPAKEREFVAGIRWSGSSTYYADSVMGRFRISRDNAKYTVYFQMLSMKPEDTAVYYCAKRYVWGDKRYWQGYDYWGQGNQVTVSS”, for which the “polyreactivity (PSR sort gate)” value is reported as “high polyreactivity”.

In the case of “QVQLVESGGGLVQAGCSLRLSCAASGRTFPYYAMGWYRQAPGKERELVARIRSDGSTNYADSVKGRFTISRDNAKNTVYLQMNSLKPEDTAVYYCTADVGFEPPWYDWSWDNEYWGQGTQVSVSS”, the “polyreactivity (PSR sort gate)” value is listed as “low polyreactivity”.

With “QVQLVESGGGLVQAGCSLRLSCAASGRTFVHYTMGWYRQAPGKERELVATISTSGGSTSYADSVKGRFTISRDNAKNTVYLQMNSLKPEDTAVYYCAARWYFPDRVKYDYWGQGTQVTVSS”, the “polyreactivity (PSR sort gate)” value is reported as “low polyreactivity”.

As to “QVQLVESGGGLVQAGCSLRLSCAASGRTFVWYEMGWYRQATGKERELVAAINKRGTSTYYADSVKGRFTISRDNAKNTVYLQMNSLNPEVTAVYYCAVEYIYWFHSRSSYIYDYWGQGTQVTVSS”, the “polyreactivity (PSR sort gate)” value is listed as “low polyreactivity”.

“QVQLVESGGGLVQAGCSLRLSCAASGRTIGYYAMGLYRPAPGKERELVAAISTRGGRTSYADSVKGRFTISRDNAKYTVYFQMNSLKPEDTAVYYCAADGVRVHKDPTGHYYWGQGTQVTVSS”: the “polyreactivity (PSR sort gate)” value is given as “high polyreactivity”.

“QVQLVESGGGLVQAGCSLRLSCAASGSIFAAYPMGWYRQAPGKERELVAAISRSCGSTYYADSVKGRFTISRDNAKNTVYLQMNSLKPEDTAVYYCAADTYGYRHDNYDYWGQGTQVTVSS”: the “polyreactivity (PSR sort gate)” value is given as “low polyreactivity”.

Take “QVQLVESGGGLVQAGCSLRLSCAASGSIFPCNAMGWYRQAPGKERELVAAISRGCSTNYADSVKGRFTISRDNAKNTDYLQMNSLKPEDTSVFDCAVYYYSYHGGRGYDYWGQGTQVTVSS”: the “polyreactivity (PSR sort gate)” value is “high polyreactivity”.

Regarding “QVQLVESGGGLVQAGCSLRLSCAASGSIFRVYAMGWYRQAPGKEREFVAAITRSGGSTYYADSVKGRFTISRDNAKNTVYLQMNSLKPEDTAVYYCNAVYYSWAQSARFDYWGQGTQVTVSS”, the “polyreactivity (PSR sort gate)” value is “low polyreactivity”.

Take “QVQLVESGGGLVQAGCSLRLSCAASGSIFSAYSMGWYRPAPGKEREFVAAITRRGGNTYYADSVKGRFTISRDNAKNTVYLQMKSLKPEDTAVYYCAASYNGLWHGDYDYWGQGTQVTVSS”: the “polyreactivity (PSR sort gate)” value is on record as “low polyreactivity”.

As to “QVQLVESGGGLVQAGCSLRLSCAASGSIFYSNAMGWYRQAPGKERELVAAITRRGGSTYYADSVKGRFTISRDNAKNTVYLQMNSLKPEDTAVYYCYADGSARTPYYYRWYRYGYWGQGTQVSVSS”, the “polyreactivity (PSR sort gate)” value is “high polyreactivity”.

On to “QVQLVESGGGLVQAGCSLRLSCAASGSTFFPNGMGWYRQAPGKERELVAAITQDGGSTYYADSVKGRFTISRDNAKNTVYLQMNSLKPEDTAVYYCAASAGPYYEYGYWGQGTQVTVSS”, for which the “polyreactivity (PSR sort gate)” value was “low polyreactivity”.
